Source: PMC10312659

Target: Polyketide synthase 13 (Pks13) of Mycobacterium smegmatis, endogenous, with native substrates bound (Mycobacterium smegmatis) (UniProt A0R617)
Assay: SEC

**Q.** With “Polyketide synthase 13 (Pks13) of Mycobacterium smegmatis, endogenous, with native substrates bound (from UniProt A0R617 1-1816) (enzyme)” as the substance, how does the stoichiometry N read?
**A.** 4
